{"source": "paper PMC6627233", "about": "(The EMBO Journal, 2019)", "binders": {"B1": {"name": "GST-tagged RNF34 (natural protein)", "chain": "MKAGATSMWASCCGLLNEVMGTGAVRGQQSAFAGATGPFRFTPNPEFSTYPPAATEGPNIVCKACGLSFSVFRKKHVCCDCKKDFCSVCSVLQENLRRCSTCHLLQETAFQRPQLMRLKVKDLRQYLILRNIPIDTCREKEDLVDLVLCHHGLGSEDDMDTSSLNSSRSQTSSFFTRSFFSNYTAPSATMSSFQGELMDGDQTSRSGVPAQVQSEITSANTEDDDDDDDEDDDDEEENAEDRNPGLSKERVRASLSDLSSLDDVEGMSVRQLKEILARNFVNYSGCCEKWELVEKVNRLYKENEENQKSYGERLQLQDEEDDSLCRICMDAVIDCVLLECGHMVTCTKCGKRMSECPICRQYVVRAVHVFKS"}}, "target": "Flag-tagged MAVS (UniProt Q7Z434 1-540)", "sequence (Q7Z434 whole entry)": "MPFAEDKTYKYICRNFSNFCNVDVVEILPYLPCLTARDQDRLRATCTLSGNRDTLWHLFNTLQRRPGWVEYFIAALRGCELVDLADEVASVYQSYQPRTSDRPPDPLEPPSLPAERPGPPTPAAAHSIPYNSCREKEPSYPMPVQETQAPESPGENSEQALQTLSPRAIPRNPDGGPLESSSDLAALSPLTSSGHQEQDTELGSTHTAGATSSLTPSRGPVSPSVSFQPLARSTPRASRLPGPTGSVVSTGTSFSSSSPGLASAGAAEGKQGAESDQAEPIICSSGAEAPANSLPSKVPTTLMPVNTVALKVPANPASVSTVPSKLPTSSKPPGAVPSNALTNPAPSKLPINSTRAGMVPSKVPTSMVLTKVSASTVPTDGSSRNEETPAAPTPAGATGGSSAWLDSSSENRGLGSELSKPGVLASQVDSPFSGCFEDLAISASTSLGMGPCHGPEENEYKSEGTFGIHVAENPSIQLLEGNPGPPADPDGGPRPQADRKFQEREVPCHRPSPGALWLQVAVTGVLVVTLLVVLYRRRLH", "assay": "far-Western, overlay or dot blot", "data": [{"binder": "B1", "values": [{"measurement": "binding result", "result": "binds"}]}]}
